Article PMC8508679

Molecular target: Trop2 ectodomain (N120Q, N208Q) (human) (UniProt P09758)
Assay: crystal structure; X-ray, 2.81 Å; sitting drop vapor diffusion, 1.6 M ammonium sulfate, 0.5 M NaCl, 13.3 mM EDTA, 0.1 M MES pH 5.8, protein at 10 mg/mL; crystal contacts analysed with PISA

Trop2 ectodomain (N120Q, N208Q) (from UniProt P09758 27-274) (domain or fragment)
stoichiometry N: 2
